In the supplement of paper PMC9170038:

System: MS2 coat protein
Assay: apparent KD of MS2 coat protein; designed switch direction (-1 OFF switch, 1 ON switch): 1; higher = weaker reporter binding
Method in brief: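 Transcription of designed RNA switches on Illumina chips was done by stalled E. coli RNA polymerase. SNAP-549-labelled MS2 coat protein was then titrated in doubling steps from 0.7 or 1.5 nM to 3 µM, with steps of 0.8–1.5 h at the lowest and 10–20 min at the highest concentration. The per-design median over clusters of curve-fitted normalised fluorescence is reported as apparent KD.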

[1] = input ligand: microRNA oligo, concentration not stated
[2] = Eterna round: R95, input ligand: microRNA oligo, concentration not stated
[3] = Eterna round: R95, input ligand: FMN 200 uM
[4] = Eterna round: R95, input ligand: none

Row | Sequence | apparent KD of MS2 coat protein (input ligand: FMN 200 uM) [nM] | apparent KD of MS2 coat protein [1] [nM] | apparent KD of MS2 coat protein (input ligand: none) [nM] | apparent KD of MS2 coat protein [2] [nM] | apparent KD of MS2 coat protein [3] [nM] | apparent KD of MS2 coat protein [4] [nM]
1 | GGCUGUUAAUUAGGAUAUGGUCACAUGAGGAUCACCCAUGUAACGAUGAUACGAUGUGGUCAAGACUAGAAGGGAUCGCUAACA [SameState NG2 #71] (Eterna round: R96, puzzle: Same State NG 2) | 172 | 128 | 105 | – | – | –
2 | CUAAAACAUGAGGAUCACCCAUGUCAACAAAGUCGAGGAUAUGGGCAAAUAAAAUAAGAACCAGAAGGCGAAUAAC [salish99_SS1_r3_014] (puzzle: Same State 1) | – | – | – | 222 | – | –
3 | UCUUGGUUUUUGCUCGUUUUUUGUGUUGAACAUGAGGAUCACCCAUGUAUUAUACGGUCCGGUUUAAUAAUAAUCCG [JMF 81] (puzzle: Sensor for hsa-mir-208a) | – | – | – | 14.6 | 24.2 | 27.3
4 | GCUAGAAUUAAAGCCAACAUGAGGAUCACCCAUGUAUGUUGGCAGGAUAUCGUUUGCUUUGCAAACGAGAAGGGCUAAACUAGC [JL SSNG3 1.02] (Eterna round: R96, puzzle: Same State NG 3) | 114 | 121 | 182 | – | – | –
5 | CCUGACAUGAGGAUCACCCAUGUAGGGAAACAAUGACAUAUGGAGGAUAUACACCCGAAAGGCGCGUAGAAGGUCACAUGUCCA [Eternabot solution 5] (Eterna round: R96, puzzle: Same State NG 3) | 10.7 | 10.8 | 13 | – | – | –
6 | UGGCUGGUGCUAGGAUAUGCAUGAGGCCUCCUCGUAGAAGGAGCACGACAUGAGGAUCACCCAUGUGGCCGUCCGUGGGCGGCU [salish99_SSNG1_r04_015] (Eterna round: R96, puzzle: Same State NG 1) | 68 | 44.8 | 60.1 | – | – | –
7 | ACAUGAGACUUAGGAUAUCUUGUACCUACAUGUGACAUGAGGAUCACCCAUGUGGUAAGUAUGAGGGAGAAGGAAGAGAUAUGU [Equivalence 38 - Jieux - Same State NG 2] (Eterna round: R96, puzzle: Same State NG 2) | 30.8 | 21 | 33.9 | – | – | –
8 | CGGCUCCGUGGAGGAUAUGGGCCUGCCCGGGAUAACGGGCCUAACACAUGAGGAUCACCCAUGUCCCAGAAGGCCGCUGGAGCC [Enineseson] (Eterna round: R96, puzzle: Same State NG 2) | 14 | 39.1 | 54.4 | – | – | –
9 | AAAAUCUACGAAAGUAGAACAAGCUUAAGACAUGAGGAUCACCCAUGUCAUGUCUUAAAACAUGAGGAAACUCAUGA [hsa-mir-208a sensor: 17] (Eterna round: R96, puzzle: Sensor for hsa-mir-208a) | 273 | 182 | 252 | – | – | –
10 | GGACGUCAACUCACUAAUUAACAUGAGGAUCACCCAUGUUCACAGGAUAUGAGUCCGAUUAGGACUCAGAAGGGUGAGACGUCC [Fiskers NG3ss - 48] (Eterna round: R96, puzzle: Same State NG 3) | 20.3 | 19.7 | 21.1 | – | – | –
11 | AUAAAAGAAAGAAACACAUGAGGAUCACCCAUGUAACGACUACAGGAUAUGCUGCACAGUCCAAAGCAGAAGGGUGGUCAAAAC [Qulaesed] (Eterna round: R96, puzzle: Same State NG 3) | 280 | 111 | 102 | – | – | –
12 | AACAAUCUAUCUGAGGAUAUCAUGAAAUAAACAUGAGGAUCACCCAUGUUCAGGAAAACUGCAUAUGAGAAGGCAGAUAGAUUGA [salish99_ss2_r3_035] (puzzle: Same State 2) | – | – | – | 16.2 | 10.4 | 15.3
13 | AUUGCUAGCACAGGAUAUCAUGCGAAAAUUGCGUGAGAAGGGUGUACUCUGUCAUUGCCGGAGGACAUGAGGAUCACCCAUGUC [SameState NG1 #82] (Eterna round: R96, puzzle: Same State NG 1) | 218 | 33.6 | 37.5 | – | – | –
14 | GGUAGGUUACUACCAAACAUGAGGAUCACCCAUGUUGAUGGGAAGGAUAUGGUACCUUUUAGGUACCAGAAGGUCUACUCGAUC [NGss mod of JL's mod of Fisker 3] (Eterna round: R96, puzzle: Same State NG 3) | 111 | 106 | 148 | – | – | –
15 | ACUUGCGGCACAGGAUAUGGGUGCCUGUACAUGAGGAUCACCCAUGUUAAGGGACGGAUUACGAACCAGAAGGGUGAGGCGGGC [Aqube] (Eterna round: R96, puzzle: Same State NG 2) | 1350 | 296 | 300 | – | – | –
16 | GAGCCAGUCCGAGGAUAUUCAUUAAAUUAAAUACAUGAGGAUCACCCAUGUAGGCGAGAGCCUUGGGAGAAGGCGGACUGGCUC [Xeonanisa>>4] (Eterna round: R96, puzzle: Same State NG 2) | 15.5 | 53.8 | 97.6 | – | – | –
17 | CGCGAACAGGCAGGAUAUAUAGAGCCAAAUAUUGUAGAAGGGCCACGUGCGGGAAGAGAACACAUGAGGAUCACCCAUGUUCGA [Eternabot solution 5] (Eterna round: R96, puzzle: Same State NG 1) | 27.4 | 27.9 | 30.7 | – | – | –
18 | GUGGUGGGUUGAGGAUAUUGGUUGUUGUUGUUUUACAUGAGGAUCACCCAUGUGGGUUGUGGUUUUGAGAAGGUUGGUUGCUGG [salish99_SSNG2_r04_048] (Eterna round: R96, puzzle: Same State NG 2) | 262 | 194 | 185 | – | – | –
19 | UGUUGUAUUACAGGAUAUCUAGUAUAUUUAUUUAGAGAAGGGUAUUCACAUGAGGAUCACCCAUGUAUAUACGAGGAAGUUGUG [JMF's solution 37] (Eterna round: R96, puzzle: Same State NG 1) | – | 29.6 | – | – | – | –
20 | AGCUAUUACGAAGGAUAUUGUGACAUGAGGAUCACCCAUGUUUUCAUGAUUUAUUGUGAUCACGUCGAGAAGGUUGUACUAACA [SameState NG2 #29] (Eterna round: R96, puzzle: Same State NG 2) | 59.2 | 50.8 | 51.8 | – | – | –
21 | AUUAUACAUGAGGAUCACCCAUGUCAACAAAGUCGAGGAUAUGGGCAAAUAAAAUAAGAACCAGAAGGCGAAUAAU [salish99_ss1_r3_069] (Eterna round: R96, puzzle: Same State 1) | 69.2 | 189 | 293 | – | – | –
22 | GAGGGACAGACCAACAUGAGGAUCACCCAUGUCCUCGCAGGUCAGGAUAUUAUGAGGAUCACCCGUGAGAAGGGACGGUGAAUU (Eterna round: R96, puzzle: Same State NG 3) | 709 | 390 | 804 | – | – | –
23 | UAGAGAGGAAGCGAGGAUAUCGUGUUAGGUACAUGAGGAUCACCCAUGUUUUAGGUAGAGGUAGGCGAGAAGGCGCAGGAGAAGA [JR_SS2_Sub090] (puzzle: Same State 2) | – | – | – | 32.9 | 25.8 | 34
